Assay results published in the nanobody polyreactivity screen of Harvey et al. (2022).

test: yeast display, Sf9 membrane polyspecificity reagent, FACS + sequencing; frameworks hold sequencing errors
Method in brief: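 Nanobodies from a synthetic yeast display library (Saccharomyces cerevisiae BJ5465), induced 36–48 hours with galactose, were stained 1 hour at 4 °C with 10% biotinylated, detergent-solubilized Sf9 membrane reagent, enriched on streptavidin microbeads, then FACS-sorted. Anti-HA (expression) and streptavidin (reagent binding) fluorescence set low and high (top ~1%) gates. Polyreactivity labels come from the gate of origin. Genes were colony-PCR amplified, MiSeq 2 × 250 sequenced and filtered by CDR length.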

Sequence	polyreactivity (PSR sort gate)
QVQLVESGGGLVQAGGSLRLSCAASGSTFYYYAMGWYRQAPGKERELVAAITLRGTSTYYADSVKGRFTISRDNAKNTVYLQMNRLKPEDTAVYYCAVETYYSIFDIYDYWGQGTQVTVSS	low polyreactivity
QVQLVESGGGLVQAGCSLRLSCAASGRIFRGNAMGWYRQAPGKERELVARITGNDGDTYYADSVKGRFTISRDNAKNTVYLQMNSLNPEDTAVYYCATDTSSYRRRYYYWGQGTQVTVSS	low polyreactivity
QVQLVESGGGLVQAGGSLRLSCAASGFIFAAYAKGWYRQAPGKERELVAAISGSGGRTYYADSVKGRFTISRDNAKYTVYLQMNSLKPEDTAVYYCGTPPGYPPGSIIWSRFGFWGQGTQVTVSS	high polyreactivity
QVQLVESGGGLVQAGGSLRLSCAASGLIITAYAMGWYRQAPGKERELVAAITGSGGRTYYADSVKGRFTISRDNAKNTVYLQMNSLKPEDTAVYYCAADFPARGSSTSDYWGQGTQVTVSS	high polyreactivity
QVHLVESGAGLVHAGGRLRLSCAASGRIFFGYAMGWYRQAPGKERELVAGITSSTGRTYYADSVKGRFTISRDNAKNTVYLQMNSVKPEDTAVYYCAADTWYRYDYWGQGTQVTESS	low polyreactivity
QVQLVDSGGGLVQAGGSLRLSCAASGSTFTYYAMGWYRQAPGKERELVAAIRNSDGTTYYADSVKGRFTISRDNAKNTVYLQMNSLKPEDTAVYYCAAGPRGRWSTYDYWGQGTQVTVSS	low polyreactivity
QGQLVESGGGLVQAGGSLRLSSAASGSIFFQNVMGWYRQAPGKERELVAAFSSSGDSTYYADSVKGRFTISRDNAKNTVYLQMISLKPEDTAVYYCAAEPEYVSGPYDYWGQGTQVTVSS	low polyreactivity
QVQLVESGGGLVQAGGSLRLSCDASGSTFIYYTMGWYRQAPGKERELVAAINGGGGSTYYADSVKGRFTISRDNAKNTVYLQMNSLKPEDTAVYYCATDPWHRAWGYGWGYNYWGQGTQVTVSS	low polyreactivity
QVQLVESGGGLVQAGGSLRLSCAASGFTFSSNAMGWYRQAPGKERELVAAISFNSTSTYYADSVKGRFTISRDNAKNTVYIQMNSLKPEDTAVYYCAKESPPAEGDSGYDYWGQGTQVTVSS	low polyreactivity
QVQLVESGGGLVQEGGSLCLSCAASGIFVYNAMGWYRQAPGKEREFVAAINKSGASTFYADSVKGRFTISRDNAKNTVYLQMNSLKPEDTAVYYCNAGTLYYRYRWGHYYDSWGQGTQVTVSS	low polyreactivity
QVQLVESGGGLVQAGGSLRLSCAASGRTYWHNTMGWYRQAPGKERELVAAINGGGGSTYYADSVKGRFTISRDNAKNTVYLQMNSLKPEDTAVYYCSARQGVVKGGRGYGYWGQGTQVTVSS	high polyreactivity
QVQLVESGGGLVQAGGSLRLSCAASGGTFLNYAMGWYRQAPGKECELVAVITNGDSTYYADSVKGRFTISRDNAKNTVYLQMNSLKPEDTAVYYCNADDWGQYNIWYDYWGQGTQVTVSS	low polyreactivity
QVHLVESGGGLVQAGGSLRLSCAASGLIFVDNAMGWYRQAPGKERELVAAIDSGGSTNYADSVKGRFTISRDNEKNTVYLQMNSLKTEDTAVYYCAADWIYAPWYYQECVEYYYWGQGTQVTVSS	low polyreactivity
QVQLVESGGGLVQAGGSLRLSCAASGSTFVRYVMGWYRQAPGKERELVAAISRRGGSTYYADSVKGRFTISRDNAKNTVYLQMNSLKPEDTAVYYCAARGTSRKYYYWGQGTQVTVSS	high polyreactivity
QVQLEESGGGLVQAGGSLRLSCAASGFTFVSYAMGWYRQAPGKERELVAAISRRGGRTYYADSVKGRFTISRDNAKNTVYLQMNSLKPEDTAVYYCNKDYYGSPSSYYWYDYWGQGTQVTVSS	high polyreactivity
QVQLVESGGGLVQAGGSLRLSCAASGSTLLANAMGWYRQAPGKERELVATITNSGGGTYYADSVKGRFTISRDNAKNTVYLQMNSLKPEDTAVYYCAAVYTGRSQYSKWRYEYWGQGTQVTVSS	low polyreactivity
QVQLVESGGGLVQAGGSLRLSCAASGSIFNSNAMGWYRQAPGTERELDAGISNIGGSTYYADSVKGRFTISRDYAKNTVYLQMNSLKPEDTAVYFCNADRLQPNRYYYWGQGTQVTVSS	high polyreactivity
QVQLVESGGGLVQAGGSLRISCAASGFILKDNAMGWYRQAPGKERELFAAISSGGGTYYADSEKGRFTITRDNAKNTVYLQMNSLNPEDTAVYYCNGDDLYSLNDSSEDYWGQGSQVTVSS	high polyreactivity
QVQLVESGGGLVQAGGSLRLSCAASGRIFRYYTMGWYRQAHGKEREFVATITSSGGSTNYADSVKGRFTISRDNAKNSVYIQTNSLKPEDTAVYYCAKTSRAPWDGYYWGEGTQVTVSS	low polyreactivity
QVQLVESGGGLVQAGGSLRLSCAASGLTFRKYAMGWYRQAPGKERELVAAITGSGGRTYYADSVKGRFTISRDNAKNTVYLQMNSLKPEDTAVYYCAADDYFHDDYCGQGTQVTVSS	high polyreactivity
QVQLVESGGGLVQAGGSLRLSCAASGSTFGENAMGWYRQAPGKERELVAAISDSGGDTYYADSVKGRFTISRDNAKNTVYLQMNSLKPEDTAVYYCAADRYGYWYAYYSWGQGTQVTVSS	low polyreactivity
QVQLVESGGGLVQAGGSLRLSCAASGFIFSWNAMGWYRQAPGKERELVAVITWSGSRTNYADSVKGRFTISRDNAKNTVYLQMNSLKPEDTAVYYCATKGPVYTSSRPVSGGAYNYWGQGTQVTVSS	low polyreactivity

Sequence	polyreactivity (PSR sort gate)
QVQLVESGGGLVQAGGRLRLSCAASGSILGEYAMGLNRQANGKERELVAAISVGGCSTYYADSVKGRFTISRDNAKNTVYLQMNSLKPVDTAVYYCSAYDYQSEMYYWGQGTQVTVSS	high polyreactivity
QVQLVESGGGLVQAGGSLRLSCAASGITFKSNAMGWYRQAPGKERELVAAISRRASSTYYADSVKGRFTISRDNAKNTVYLQMNSLKPEDTAVYYCNAVLPVYRTNMDYWGQGTQVTVST	high polyreactivity
QVQLVESGGGLVQAGGSLRLSCAASGFIFYYYTMGWYRQAPGKERELVAAISSSGGRTYYADSVKGRFTISRDNAKNTVYLQMNSLKPEDTAVYYCAALYRWNQFPYFKGGYWGQGTQVTVSS	high polyreactivity
QVQLVESGGGLVQAGGSLRLSCAASGIIFGGYAMGWYRQAPGKERELVAAITRSGGSTYYADSVKGRFTISRDNAKNTVYLQMNSLKPEDTAVYYCAAVPYRKHSYPFRLNYWGQGTQVTVSS	high polyreactivity
QVQLVESGGGLVQAGGSLRLSCAASGRIFTTYVMGWYRQAPGKERELVAAISARGSTYYADSVKGRFTISRDNAKNTVYLQMNSLKPEDTAVYYCAAGHRLPVYYGYPRATYNYWGQGTQVTVSS	low polyreactivity
QVQLVESGGGLVQAGGSLRLSCAASGSIFTPNTMGWYRQAPGKEREFVAAINTSGSTNYADSVKGRFTISRDNAKNTVYLQLNSLKPEDTAVYYCAAGIVVTGYDYWGQGTQVTVSS	low polyreactivity
QVQLVESGGGLVQAGGSLRLSCAASGSIKQNSMGWYRQAPGKERELVAAIDWDGSSTYYADSVKGRFTISRDNAKNTVYLQMNSLKPEDTAVYYCNTDYTGPDGTDEYDYWGQVTQVTVSS	low polyreactivity
QVQLVESGGGLVQAGGSLRLSCAASGSIFWVYAMGWYRQAPGKERELVAAISSSGGRTYYADSVKGRFTISRDNAKNTVYLQMNSLKPEDTAVYYCASRWKTGYNYWGQGTQVTVSS	high polyreactivity
QVQLVESGGGLVQAGGSLRLSCAASGRTFYDYAMGWYRQAHGKERELVAAIRLSGASTYYADSVKGRFTISRDNAKNTVYLQMNSLKPEDTAVYYCAARYGGRVAYRGYSYYYWGQGTQVTVSS	high polyreactivity
KVQLVESGVGLDQAGGSHRLSCDASGYIFDDYAMGWYRKAPGKERELVAAISSSGTSTNYADSVKVRFTISRDNAKNTVYLQMNSLKPEDTAVYYCAARSAILKSGYLMDYWGLGTQVTVSS	low polyreactivity
QVQVVESGVGLVQSGGSLRLSYAASGSIFIPYPMGWYRQAPGKERELVAAISSSGSTYYADSVKGRFTISRDNAKNTFYLQMNSLKPEDTAVYYCAAERHYSYSSYDDWGQGTQVTVSS	low polyreactivity
QVQLVESGGGLVQAGGSLRLSCAASGIIFYPYTMGWYRQAPGKERELVAAINSGGSTYYADSVKGRFTISRDNAKNTVYLQMNSLKPEDTAVYYCAAEANRYSSGYDYWGQGTQVTVTS	low polyreactivity
QVQLVESGGRLVQAGGSRRLSCAASGSTFYTNDMGWYIQAPGKERELVAAISSGGDYADSVKGRFTISRDNAKNTVYLQMNSLKPEDTAVYYCAKADTKWGQGTQVTVSS	low polyreactivity
QVQLVESGGGLVQAGGSLSLICAASGFTFGSNDMGWYRQAPGKERELVAAIDGSGDTYYADSVKGRFTISRDNAKNTVYLQMNSLKPEDTAVYYCARDDNPIYSGVTYDYWGQGTQVTVSS	low polyreactivity
QVQLVESGGGLVQAGGSLRLSCAASGRTFQVNTMGWYRQAPGKERELVAAISSAGRTYYADSVKGRFTISRDNAQNTVYLQMNSLKPEDTAVYYCAAAWSYSYWKARYGYWGQGTQVTVSS	high polyreactivity
QVQLVESRGGLVQAGGSLRLSCAASGFIFGYYALGWYRQAPGKEWELVAAITNGGRTYYADSVKGRFTISRDNAKNTVYLQMISLKPEDTAVYYCAARPSWWSALFDSWGQGTQVTVSS	low polyreactivity
QVQLVESGGGLVQAGGSLRLSCAASGSIFNRYAMGWYRQAPGKEREFVARISKRGGGTYYADSVKGRFTISRDNAKNTVYLQMNSLKPEDTAGYYCNAGVPSAMDYWGQGTQVTVSS	high polyreactivity
QVQLVESGGGLVQAGGSLRLSCAASGRIFAYYAMGWYRQAPGKEREFLATITGRGGSTSYADSVKGRFTISRDNAKNTVYLQMNSLKPEDTAVYYCAKRVVVWYFGTGDYWVQGTQVTVSS	low polyreactivity
QVQLVESGGGLVQAGGSLRLSCAASGRIFAYYAMGWYRQAPGKERELVASISSSGVSTYYADSVKGRFTISRDNAKNTVYLQMNSLKPEDTAVYYCAARQFSWDSQRYRHRYDYWGQGTQVTVSS	high polyreactivity
QVQLVESGGGLVQAGGSLRLSCAASGRIFIRNAMGWYRPAPGKERELVAAITQSGGSTYYADSVKGRFTISRDNAKNTVYLQMNSLKPEDTAVYYCAADGDNPYLHEEDYWGQGTQVTVSS	high polyreactivity
QVQLVESGGGLVQAGGSLRLRCAASGLIFAEYAIGWYRQAPGKERELVARITSGGSTDYADSVKGRFTISRDNAKNTVYLQMNSLKPEDTAVYYCAARYYSQDKNASTASDFDYWGQGTQVTVSS	low polyreactivity
